± gives the half width of the 95% confidence interval.
Assays:
[1] = folding stability dG unfold (combined trypsin and chymotrypsin); higher = more stable
Procedure, shortened: (§1)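 Unfolding free energy was derived, per protease or combined, against a sequence-predicted unfolded-state K50 and a shared folded-state K50, starting from K50 inferred by Bayesian fitting of sequencing counts. Digestion with trypsin and chymotrypsin was carried out on designed mini-proteins under 80 residues without cysteine in a PA-tagged cDNA display construct. Only designs with AlphaFold2 dimer inter-PAE above 15 were kept.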

[2] = folding stability dG unfold from trypsin proteolysis; higher = more stable
Procedure, shortened: as §1

[3] = folding stability dG unfold from chymotrypsin proteolysis; higher = more stable
Procedure, shortened: as §1

Sequence	folding stability dG unfold [1] [kcal/mol]	folding stability dG unfold [2] [kcal/mol]	folding stability dG unfold [3] [kcal/mol]
SAGGSAGGSASKDDKIVKVKVFTIKLKPNLEGLPKKVRELLEKLGIKEIKITFVSVFNPEDFSAGGSAGGSA [r18_127_TrMRF]	3.93 ± 0.17	3.23 ± 0.2	4.34 ± 0.14
SAGGSAGGSASKTIFIPAAVVAANPEKAVEFAEKVREEFEKKGLSVKTEVLPDGGIGIHVGSAGGSAGGSAG [r3_75_TrMRF]	1.88 ± 0.087	2.07 ± 0.071	1.61 ± 0.054
SAGGSAGGSASLDLSNATVLEEKTDPAKGLKTLTIKTPTSTLTITVEFDENGNPVKMTVFESAGGSAGGSAG [r3_5_JUSTAS]	2.03 ± 0.048	1.71 ± 0.037	2.2 ± 0.057
SAGGSAGGSASMAPPEVLSLPVEILEKSPDGSVTVLVPETGEVLTFPSPKVNVTPDGTLNLSSAGGSAGGSA [r18_89_JUSTAS]	0.0808 ± 0.1	0.416 ± 0.042	-0.611 ± 0.16
SAGGSAGGSASMKKKKFVVKTEEEAEKVIAELKAKVPKGTEVEIYIKNEDGTLEKYAIIKISAGGSAGGSAG [r3_92_JUSTAS]	3.13 ± 0.15	2.91 ± 0.11	3.15 ± 0.047
SAGGSAGGSASSLEESLRAELPEGKPARIEVKVELEKTPNGKLKVKEVKVTVTLPNGPVVGSAGGSAGGSAG [r3_247_JUSTAS]	1.24 ± 0.11	0.572 ± 0.077	1.52 ± 0.072
SAGGSAGGSASSSPVTVETKTLEVEFKDDEIIVKEKVTTKYPNGKTTVTVTTTTIKVDPNLDSAGGSAGGSA [r18_291_JUSTAS]	1.34 ± 0.12	1.21 ± 0.1	1.55 ± 0.1
SAGGSAGGSASSSSSIKFLSEEEIKLPDGTPVKVKIYKDPSNNKEYLYLPESKVWLPISKISAGGSAGGSAG [r3_181_JUSTAS]	1.67 ± 0.1	1.41 ± 0.033	1.74 ± 0.037
SAGGSAGGSASTSEKIDYPNPPITVTRLPNGVVLVTYSDSNTTTVIPESVLATLPPTVPLFSAGGSAGGSAG [r3_256_JUSTAS]	1.33 ± 0.043	1.58 ± 0.048	1.12 ± 0.013
SAGGSAGGSASVEEIADKIQQLHGVDVEVTEPQPNSNGYPRWRIKVDLKGLPEKWMQELLNSAGGSAGGSAG [r3_40_TrROS]	0.372 ± 0.11	0.681 ± 0.17	0.217 ± 0.19
SAGGSAGGSASVKVEEKPTEIVITTKSPSPVITVETIPLSPDGVPVGKKTTTISLPPKDIILSAGGSAGGSA [r18_300_JUSTAS]	-0.719 ± 0.47	-0.3 ± 0.11	-0.778 ± 0.15
SAGGSAGGSASVTTTTTPLPGDRTLTTTTYPDGTVKVTTYTVDTATGTVTSTSTTLSPATLTSAGGSAGGSA [r18_325_JUSTAS]	0.856 ± 0.082	1.15 ± 0.042	0.254 ± 0.12
SAGGSAGGSATIRIPWDKIKDALEEHDMTVTNIEPNPGGNPWVEIEVNGTPEQREKIQEALKSAGGSAGGSA [r18_175_TrROS]	0.313 ± 0.12	0.369 ± 0.045	0.255 ± 0.15
SAGGSAGGSATKTIKVKNADGETVELTVEKREDGSYKITLTFPDGTKKTFTIKPGEKIVIKPSAGGSAGGSA [r18_115_TrROS_Hall]	3.9 ± 0.12	2.42 ± 0.11	4.24 ± 0.098
SAGGSAGGSAVLDPSSPRPFEIVEVRRVRFEATVSFAGRPRKLEIEVDLLLVRDPSNGRIGSAGGSAGGSAG [r3_391_TrMRF]	3.14 ± 0.15	2.19 ± 0.04	3.54 ± 0.049
SAGGSAGGSAVPPDRPFTLPVLTLVRDPETGELYLARAEVTFLAPDPVITAARLEVFPPDADFSAGGSAGGS [r12_868_TrMRF]	1.34 ± 0.09	0.761 ± 0.058	1.69 ± 0.085
SAGGSAGGSAVSPDETVPIKIDGKEVTVTFNGSKATITFPDGTVIEGTVSTEGSKLTLDLNLSAGGSAGGSA [r18_172_JUSTAS]	1.46 ± 0.13	1.74 ± 0.053	1.26 ± 0.059
SAGGSAGGSAVYRTEDGRWVLVVEEVDGELTVHVYRRVDGRWELVETYPLEDLSPEARAALSAGGSAGGSAG [r3_241_TrROS_Hall]	2.03 ± 0.053	1.48 ± 0.025	2.33 ± 0.029
SAGGSAGGSAWGWISFNFEFLMFNPDGMFMPFRMQIDIRVEVKPEPKPKPKPKRDPNGKWKSAGGSAGGSAG [r3_252_TrROS]	2.65 ± 0.15	1.91 ± 0.034	2.8 ± 0.082
SAGGSAGGSAWHIRIHPGNEPQWIPIDDLRDKGLPPEELAEELQKKFGFKVEIVDPGWIRVKSAGGSAGGSA [r18_7_TrROS]	-0.348 ± 0.24	-0.284 ± 0.26	-0.364 ± 0.42
SAGGSAGGSAWIVIPAEDIKENLDEIEFRNGDGQEYRIKVDVQEHGDRPYVMIDIVPPGQPISAGGSAGGSA [r18_447_TrROS]	0.472 ± 0.18	-0.413 ± 0.28	0.882 ± 0.15

From the supplement of paper PMC12764529
